Target: -L1 (recombinant, BLI) (human), Q9H0R8
Experiment: BLI
Conditions: modification not given

Sequence of -L1 (recombinant, BLI) (human), Q9H0R8 (Q9H0R8 whole entry): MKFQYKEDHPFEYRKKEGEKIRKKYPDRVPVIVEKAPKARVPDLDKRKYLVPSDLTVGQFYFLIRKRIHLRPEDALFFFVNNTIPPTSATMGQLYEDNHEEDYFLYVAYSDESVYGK

| Binder | Kd |
| --- | --- |
| NISQKSDEEDFVKIEDLPLKLTIY [PCM1 V1958I LIR peptide] | 1.1 µM |
| NISQKSDEEDFDKVEDLPLKLTIY [PCM1 V1956D LIR peptide] | 5.2 µM |
